Reference: US20240010735A1 (EISAI R AND D MANAGEMENT, published 2024)

Assays:
Test in all cases: ELISA: SEAP-His proteins (1 nM) captured on anti-6-His antibody, antibody A 10 µg/mL with human IgG 100 µg/mL, HRP anti-mouse IgG, OD450 as % of human EphA4-SEAP-His
[1] = biological target: T1, human EphA1 extracellular region-SEAP-His protein (human, UniProt P21709 26-547)
T1 construct: extracellular domain; also called Eph receptor extracellular region-SEAP-His protein; not shown: secretory alkaline phosphatase (SEAP); histidine tag
T1 sequence (looked up): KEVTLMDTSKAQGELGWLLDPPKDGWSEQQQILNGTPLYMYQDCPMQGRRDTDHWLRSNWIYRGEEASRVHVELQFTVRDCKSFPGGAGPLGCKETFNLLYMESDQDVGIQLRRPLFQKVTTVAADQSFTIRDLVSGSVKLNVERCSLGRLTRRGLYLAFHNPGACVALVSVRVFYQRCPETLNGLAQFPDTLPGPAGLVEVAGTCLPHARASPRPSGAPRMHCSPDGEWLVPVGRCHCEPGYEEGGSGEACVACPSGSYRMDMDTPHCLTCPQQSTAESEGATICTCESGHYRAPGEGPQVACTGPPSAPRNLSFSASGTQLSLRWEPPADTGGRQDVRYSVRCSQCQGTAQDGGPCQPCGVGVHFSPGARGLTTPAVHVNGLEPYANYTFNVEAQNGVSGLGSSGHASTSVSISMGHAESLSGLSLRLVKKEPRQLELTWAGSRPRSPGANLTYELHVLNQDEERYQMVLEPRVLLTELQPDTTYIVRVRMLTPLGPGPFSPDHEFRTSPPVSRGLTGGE
Protocol: (§1) Rabbit anti-6-His antibodies (Bethel Laboratories) were coated onto the wells of a 96-well plate (Nunc). After incubating at 4° C. overnight, the wells were blocked at room temperature for 1 hour by 1% Block Ace (DS Pharma Biomedical). After washing 3 times with 0.05% Tween 20/PBS (Thermo […]), each Eph receptor of human extracellular region-SEAP-His protein (final concentration 1 nM) was seeded into each well, and incubated at room temperature for 1 hour. After washing 3 times, human IgG solution (100 μg/mL, Mitsubishi Pharma Corporation) and antibody A (10 μg/mL) were supplemented to the wells, and incubated at room temperature for 1 hour. Horseradish peroxidase-labeled donkey anti-mouse IgG antibody (Jackson ImmunoResearch Laboratories) was added, and incubated at room, temperature for 1 hour. After washing 3 times, TMBZ (3,3′,5,5′-tetramethylbenzidine, Sigma) solution was added to the wells, and upon confirmation of modest coloring, an equal amount of quenching solution (1 N H₂SO₄, Wako Pure Chemicals) was added to the wells, and absorbance at 450 nm was read by a microplate reader (PerkinElmer).

[2] = biological target: T2, human EphA5 extracellular region-SEAP-His protein (human, UniProt P54756 25-573)
T2 construct: extracellular domain; also called Eph receptor extracellular region-SEAP-His protein; not shown: secretory alkaline phosphatase (SEAP); histidine tag
Protocol: as §1

[3] = biological target: T3, human EphA7 extracellular region-SEAP-His protein (human, UniProt Q15375 28-555)
T3 construct: extracellular domain; also called Eph receptor extracellular region-SEAP-His protein; not shown: secretory alkaline phosphatase (SEAP); histidine tag
T3 sequence (looked up): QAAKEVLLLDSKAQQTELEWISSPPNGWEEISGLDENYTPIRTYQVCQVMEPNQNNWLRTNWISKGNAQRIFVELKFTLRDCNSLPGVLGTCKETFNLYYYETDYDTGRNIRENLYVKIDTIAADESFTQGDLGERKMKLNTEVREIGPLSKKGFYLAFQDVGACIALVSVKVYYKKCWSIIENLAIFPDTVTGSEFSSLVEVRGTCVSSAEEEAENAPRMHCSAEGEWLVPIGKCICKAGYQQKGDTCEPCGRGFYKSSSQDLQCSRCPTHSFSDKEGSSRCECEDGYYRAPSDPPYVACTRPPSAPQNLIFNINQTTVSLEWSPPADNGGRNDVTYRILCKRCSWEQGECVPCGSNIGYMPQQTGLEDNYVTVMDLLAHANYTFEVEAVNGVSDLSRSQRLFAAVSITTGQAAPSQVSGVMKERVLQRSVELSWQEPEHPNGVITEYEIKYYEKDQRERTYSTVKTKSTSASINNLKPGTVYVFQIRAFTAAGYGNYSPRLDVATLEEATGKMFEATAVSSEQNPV
Protocol: as §1

[4] = biological target: T4, human EphB2 extracellular region-SEAP-His protein (human, UniProt P29323 19-543)
T4 construct: extracellular domain; also called Eph receptor extracellular region-SEAP-His protein; not shown: secretory alkaline phosphatase (SEAP); histidine tag
T4 sequence (looked up): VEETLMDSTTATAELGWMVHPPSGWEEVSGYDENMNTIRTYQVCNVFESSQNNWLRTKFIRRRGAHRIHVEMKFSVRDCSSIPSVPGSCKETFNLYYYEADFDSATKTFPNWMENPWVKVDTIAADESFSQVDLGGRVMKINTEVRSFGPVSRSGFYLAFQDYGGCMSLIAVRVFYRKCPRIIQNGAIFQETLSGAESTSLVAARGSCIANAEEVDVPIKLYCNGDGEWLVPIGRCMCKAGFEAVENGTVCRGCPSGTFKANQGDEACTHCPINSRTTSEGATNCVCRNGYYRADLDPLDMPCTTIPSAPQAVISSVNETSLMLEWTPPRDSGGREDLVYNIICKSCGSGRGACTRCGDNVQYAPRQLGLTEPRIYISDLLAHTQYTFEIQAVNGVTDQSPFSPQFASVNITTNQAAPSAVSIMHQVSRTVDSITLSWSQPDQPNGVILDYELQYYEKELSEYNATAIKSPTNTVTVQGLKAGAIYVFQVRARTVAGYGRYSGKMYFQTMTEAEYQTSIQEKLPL
Protocol: as §1

Measured: binding result

T2 sequence (P54756 25-573): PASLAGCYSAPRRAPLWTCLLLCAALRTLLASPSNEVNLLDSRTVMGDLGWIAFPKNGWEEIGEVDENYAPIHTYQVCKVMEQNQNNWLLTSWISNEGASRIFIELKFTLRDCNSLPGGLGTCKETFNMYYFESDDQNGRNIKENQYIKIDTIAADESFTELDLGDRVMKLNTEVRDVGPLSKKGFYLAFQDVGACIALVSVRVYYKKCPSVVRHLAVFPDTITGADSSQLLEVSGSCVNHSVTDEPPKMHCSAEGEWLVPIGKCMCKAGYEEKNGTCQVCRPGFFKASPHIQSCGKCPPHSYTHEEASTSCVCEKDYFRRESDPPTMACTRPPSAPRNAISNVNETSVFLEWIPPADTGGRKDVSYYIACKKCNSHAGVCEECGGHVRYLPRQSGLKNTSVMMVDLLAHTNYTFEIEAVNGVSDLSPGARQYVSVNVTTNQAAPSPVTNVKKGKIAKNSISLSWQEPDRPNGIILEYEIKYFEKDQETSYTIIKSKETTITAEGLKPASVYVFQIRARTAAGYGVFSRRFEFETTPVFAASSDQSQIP

B1: mouse anti-EphA4 monoclonal antibody (antibody A) (antibody, mouse IgG1, kappa, V domains shown)
VH: QVQLKQSGPSLVQPSQSLSITCTVSGFSLTRYGVHWVRQSPGKGLEWLGVIWRGGSTDYNAAFMSRLSITKDNSKSQVFFKMNSLQADDTAIYYCAKESLFGVYYDYGYYSMDYWGQGTSVTVSS
VL: DIQMTQSPSSLSASLGERVSLTCRASQEISGYLSWLQQKPDGTIKRLIYAASTLDSGVPKRFSGSRSGSDYSLTISSLESEDFADYYCLQYASYPLTFGAGTKLELKR
notes: purified from hybridoma supernatant
no binding (tested: 10 µg/mL): all assays above
